For data set [1], the target named is T1, recombinant GAPDH GapC1 (At3g04120) (A. thaliana, UniProt P25858 1-338).
T1 construct: cytosolic NAD-dependent glyceraldehyde-3-phosphate dehydrogenase GapC1, A. thaliana, At3g04120; Redox reagents (diamide + GSH, GSSG, GSNO, H2O2 + GSH, DTT) were added to the mixtures; the redox state is told by the assay; source: recombinant, purified
As to the kind of experiment: far-Western, overlay or dot blot; GapC and BSA spotted on nitrocellulose, overlaid with VDAC3 in liposomes, without DTT (oxidized GapC); anti-VDAC1 serum, ECL. The settings on record: both partners purified.

Data set [2] deals with the molecule itself. As to the kind of experiment: far-Western, overlay or dot blot; 2 μg of each protein spotted on nitrocellulose, overlaid with 100 μg/ml aldolase with 0.1 mM GSNO, 5 mM GSSG, 1 mM diamide + 1 mM GSH or 0.5 mM H2O2 + 0.5 mM GSH, 1 h room temperature; glutaraldehyde cross-linking; anti-aldolase antibody.

The results in this text go back to publication PMC3540817, “Transfer of a Redox-Signal through the Cytosol by Redox-Dependent Microcompartmentation of Glycolytic Enzymes at Mitochondria and Actin Cytoskeleton” (Frontiers in Plant Science, 2012).

T1 sequence (P25858 whole entry): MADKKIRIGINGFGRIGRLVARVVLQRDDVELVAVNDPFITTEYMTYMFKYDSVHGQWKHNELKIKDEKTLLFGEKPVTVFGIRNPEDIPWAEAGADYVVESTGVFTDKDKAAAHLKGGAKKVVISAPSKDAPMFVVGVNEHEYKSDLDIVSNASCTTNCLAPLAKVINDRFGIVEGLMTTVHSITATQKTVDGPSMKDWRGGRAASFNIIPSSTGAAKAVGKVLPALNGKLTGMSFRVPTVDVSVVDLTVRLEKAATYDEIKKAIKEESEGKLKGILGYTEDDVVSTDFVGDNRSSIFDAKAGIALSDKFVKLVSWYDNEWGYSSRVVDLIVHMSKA

B1: VDAC3 (At5g15090) reconstituted into liposomes (natural protein, A. thaliana, UniProt Q9SMX3 1-274, looked up)
chain: MVKGPGLYTEIGKKARDLLYRDYQGDQKFSVTTYSSTGVAITTTGTNKGSLFLGDVATQVKNNNFTADVKVSTDSSLLTTLTFDEPAPGLKVIVQAKLPDHKSGKAEVQYFHDYAGISTSVGFTATPIVNFSGVVGTNGLSLGTDVAYNTESGNFKHFNAGFNFTKDDLTASLILNDKGEKLNASYYQIVSPSTVVGAEISHNFTTKENAITVGTQHALDPLTTVKARVNNAGVANALIQHEWRPKSFFTVSGEVDSKAIDKSAKVGIALALKP
notes: voltage-dependent anion channel VDAC3, A. thaliana, At5g15090; also called VDAC3 in liposomes; porin; source: cell-free system (RTS 100 Wheat Germ CECF), separated from the reaction mix via reconstitution into liposomes
Regarding B1, in data set [1], the binding result was “binds”.

B2: recombinant cytosolic fructose 1,6-bisphosphate aldolase (FBA6, At2g36460) (enzyme, A. thaliana, UniProt Q9SJQ9 1-358, looked up)
chain: MSSFTSKFADELIANAAYIGTPGKGILAADESTGTIGKRLASINVENVESNRRALRELLFTTPGALPCLSGVILFEETLYQKSSDGTPFVDMLKSAGVLPGIKVDKGTVELAGTNGETTTQGLDGLGDRCKKYYEAGARFAKWRAVLKIGVNEPSQLAIHENAYGLARYAVICQENGLVPIVEPEILVDGSHDIQKCAAVTERVLAACYKALSDHHVLLEGTLLKPNMVTPGSESAKVAPEVIAEHTVRALQRTVPAAVPAIVFLSGGQSEEEATRNLNAMNQLKTKKPWSLSFSFGRALQQSTLKTWGGKEENVKKAQEAFLVRCKANSEATLGAYKGDAKLGEGAAESLHVKDYKY
notes: cytosolic fructose 1,6-bisphosphate aldolase FBA6, A. thaliana, At2g36460; Redox reagents were added to the mixtures; no modified residues are named; the redox state is told by the assay; source: recombinant, purified
With B2, the binding result in data set [2] was “binds”.
